These results are taken from article PMC4676782.

Data set [1] has as its target Human Carboxylesterase 1 (hCES1), wild type, glycosylated (human) (UniProt P23141). Put plainly: SEC; HiLoad 16/60 Superdex 200, 200 mM NaCl, 20 mM Tris-HCl, pH 7.5; molecular weight estimated from globular protein standards.
Data set [2] has the same target. Kind of data set: AUC; sedimentation velocity, 20°C, 2, 1.0 and 0.5 mg/mL protein in 20 mM TrisHCl, pH 7.5, 200 mM NaCl, 40,000 rpm; c(S) analysis with SEDFIT.
Data set [3] addresses hCES1 S221A (catalytically inactive mutant) (human) (UniProt P23141). Put plainly: SEC; HiLoad 16/60 Superdex 200, 200 mM NaCl, 20 mM Tris-HCl, pH 7.5; molecular weight estimated from globular protein standards.
The target is the same in data set [4]. Put plainly: AUC; sedimentation velocity, 20°C, 2, 1.0 and 0.5 mg/mL protein in 20 mM TrisHCl, pH 7.5, 200 mM NaCl, 40,000 rpm; c(S) analysis with SEDFIT.
The target of data set [5] is hCES1 N79Q (aglycosylated hCES1) (human) (UniProt P23141). Kind of data set: SEC; HiLoad 16/60 Superdex 200, 200 mM NaCl, 20 mM Tris-HCl, pH 7.5; molecular weight estimated from globular protein standards.
Data set [6] shares this target. Kind of data set: AUC; sedimentation velocity, 20°C, 2, 1.0 and 0.5 mg/mL protein in 20 mM TrisHCl, pH 7.5, 200 mM NaCl, 40,000 rpm; c(S) analysis with SEDFIT.
The conditions of data set [7]: N-glycosylation at N79.
Data set [8] is described as follows: size exclusion chromatography. As to conditions: glycan lost; control: glycosylated hCES1.
Data set [9] can be described thus: 4-NPA kinetics, allosteric sigmoidal fit. As to conditions: glycan lost; control: glycosylated hCES1.
Data set [10] in a line: crystal structure superposition, Cα rmsd. As to conditions: glycan lost; control: glycosylated hCES1 structure (5a7f).
A short description of data set [11]: 4-NPA hydrolysis, A405, specific activity. Conditions: glycan lost; control: glycosylated hCES1.
A short description of data set [12]: sedimentation velocity analytical ultracentrifugation. Conditions: glycan lost; control: glycosylated hCES1.

Like-named read-outs stand apart in the source and are kept apart here.

As for “Human Carboxylesterase 1 (hCES1), wild type, glycosylated (from UniProt P23141 18-567) (enzyme)”, the stoichiometry N in [1] and in data set [2] was 3 throughout.
In the case of “hCES1 S221A (catalytically inactive mutant) (from UniProt P23141 18-567) (enzyme)”, the stoichiometry N in data set [3] and in [4] was 3 in each case.
On to “hCES1 N79Q (aglycosylated hCES1) (from UniProt P23141 18-567) (enzyme)”, for which the stoichiometry N in data set [5] and in data set [6] was 3 throughout.

B1: Human Carboxylesterase 1 (hCES1): N79Q (protein)
parent chain: MWLRAFILATLSASAAWGHPSSPPVVDTVHGKVLGKFVSLEGFAQPVAIFLGIPFAKPPLGPLRFTPPQPAEPWSFVKNATSYPPMCTQDPKAGQLLSELFTNRKENIPLKLSEDCLYLNIYTPADLTKKNRLPVMVWIHGGGLMVGAASTYDGLALAAHENVVVVTIQYRLGIWGFFSTGDEHSRGNWGHLDQVAALRWVQDNIASFGGNPGSVTIFGESAGGESVSVLVLSPLAKNLFHRAISESGVALTSVLVKKGDVKPLAEQIAITAGCKTTTSAVMVHCLRQKTEEELLETTLKMKFLSLDLQGDPRESQPLLGTVIDGMLLLKTPEELQAERNFHTVPYMVGINKQEFGWLIPMQLMSYPLSEGQLDQKTAMSLLWKSYPLVCIAKELIPEATEKYLGGTDDTVKKKDLFLDLIADVMFGVPSVIVARNHRDAGAPTYMYEFQYRPSFSSDMKPKTVIGDHGDELFSVFGAPFLKEGASEEEIRLSKMVMKFWANFARNGNPNGEGLPHWPEYNQKEGYLQIGANTQAAQKLKDKEVAFWTNLFAKKAVEKPPQTEHIEL
On to B1, for which, in data set [7], the enzymatic_activity result is “no change, specific activity 73 (hCES1) vs 98 (N79Q) µmol min-1 μg-1; Vmax 9.25 +/- 1.30 vs 10.92 +/- 2.01 μMmin-1; h 1.46 vs 1.57”; the expression_or_secretion result is “no change, 39 mg/L (N79Q, transient HEK293T) vs 64 mg/L (hCES1, stable HEK293 Gnt1-/-)”; the oligomerisation result is “no change, trimer, apparent molecular weight 152 kDa”; the structure_or_conformation entry is “no change, rmsd 0.47 Å (vs hCES1) and 0.3 Å (vs S221A) for all Cα atoms”. For the same molecule, the oligomerisation entry in data set [8] is listed as “no change”. Also, in data set [9], the “enzymatic_activity, other: Hill coefficient” value was “no change, 1.57 +/- 0.4 vs 1.46 +/- 0.26”; the “enzymatic_activity, other: Khalf” value is recorded as “no change, 1090 +/- 343.3 vs 1123 +/- 280.2”; the “enzymatic_activity, other: Vmax” value is listed as “no change, 10.92 +/- 2.01 vs 9.25 +/- 1.30”. In addition, the structure or conformation, other: rmsd to control in data set [10] is 0.47 Å. The “enzymatic_activity, other: specific activity” value in [11] is listed as “no change, 98 vs 73, The purified aglycosylated enzyme was found to be more active than glycosylated hCES1”. Moreover, the oligomerisation result in data set [12] was “no change”.

One may read the stoichiometry N as the number of molecules, sites or subunits per partner or assembly.
